The values below come from the supplement of paper PMC12042874.

± gives the uncertainty stated by the source.

The nature of this data set: amyloid nucleation score (Sup35N fusion, yeast selection) (log enrichment); library NNK2; higher = more nucleation; inactive = no reads after selection. The method, boiled down: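 Nucleation score is defined as the DiMSum log enrichment of output over input reads, with centring on the mode score of non-aggregating sequences. A minimum of 100 input reads was required for each sequence. Reads came from Illumina sequencing of plasmid inserts from psi-negative yeast expressing Sup35N fused to peptides of 20 random codons, induced with 100 μM copper sulfate for 24 hours and grown 7 days at 30°C on medium lacking adenine and uracil.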
As for LAPPKKAFISVKMSLDRYCV, the amyloid nucleation score is -0.305 ± 0.26.

LDWAWACSWVVA gave an amyloid nucleation score of 0.389 ± 0.8.

In the case of NSVDTTCAL, the amyloid nucleation score was 1.04 ± 0.41.

Take AIVSMFGVITY: the amyloid nucleation score is -2.57 ± 0.62.

For FIDLYLRFWVCTSFQCAHSI, the amyloid nucleation score entry was “inactive”.

IWYESWEQHGKDVQVPMVTD: the amyloid nucleation score was determined as 0.623 ± 0.22.

With ELDGYLVLFFTGLNP, the amyloid nucleation score was -0.418 ± 0.63.

VSHFPGSPLTNKRSMLPAQM returned an amyloid nucleation score of 2.01 ± 0.14.

In turn, ARLLTRNINESNRFI yielded an amyloid nucleation score of 0.065 ± 0.28.

Consider EDITI, for which the amyloid nucleation score is -1.67 ± 0.41.

Substance RFERISQAKIARTLGLWEML gave an amyloid nucleation score of 0.878 ± 0.17.

In turn, CIRRESCIRICGGDCVCHRA displayed an amyloid nucleation score of 2.97 ± 0.091.

The substance YGGKSHPLIWFACIWSYIVN gave an amyloid nucleation score of 3.04 ± 0.07.

KVSDRVGLEPKVCAQRRRNL: the amyloid nucleation score was 0.025 ± 0.27.

For the substance GNWSVDGWQYCNRTHKCSYH, the amyloid nucleation score was 2.41 ± 0.059.

The substance SNFETDTL gave an amyloid nucleation score of 1.82 ± 0.14.

RLSSHTVMAWVSCNWGDFTV came in with an amyloid nucleation score of 9.919 ± 0.065.

VAKAAHFSLVIMYLFK: the amyloid nucleation score was found to be 0.01 ± 0.43.

Substance YRVCAYLAAKEFDSRHGGDA displayed an amyloid nucleation score of 0.744 ± 0.37.

In turn, RFMVTTAGRVLPLLSMRGWA had an amyloid nucleation score of 4.68 ± 0.061.

LLVVCSNLQNKVCRRNPEVF displayed an amyloid nucleation score of -1.79 ± 0.49.

In the case of SSTFCS, the amyloid nucleation score stood at 0.405 ± 0.64.

On to LKWRVRWAIKED, for which the amyloid nucleation score was 0.547 ± 0.21.

For RNFGAVAFWVGWHWVVFSVG, the amyloid nucleation score was -0.588 ± 0.29.

As to DSFASTQYCAVSSSVQLAWQ, the amyloid nucleation score came to 1.45 ± 0.27.

As for KQVNPPIA, the amyloid nucleation score was -0.541 ± 1.1.

For the substance WHGQQDLDYYHFT, the amyloid nucleation score entry is “inactive”.

Consider SACNARRVPFG, for which the amyloid nucleation score amounted to 0.788 ± 0.51.

Turning to DRVFLFFKKRPGPWMMARLY, the amyloid nucleation score result was “inactive”.

ARSMVMHYFWGSTLAPESKF gave an amyloid nucleation score of -0.801 ± 0.45.

Take FFRNIIYRCMREIKFIEPSE: the amyloid nucleation score was -0.046 ± 0.63.

LASHVVWTDKN: the amyloid nucleation score was 6.635 ± 0.041.

LLCSPEGVYGKCTGGFRQTL: the amyloid nucleation score stood at 0.581 ± 0.39.

FYLWATTYQCRFFIRYAKFS came in with an amyloid nucleation score of 2.97 ± 0.084.

In turn, NNVPCEKHRHASMYINAA came in with an amyloid nucleation score of -0.081 ± 1.1.

In the case of FATQGSHKAVLGRSVHHLCR, the amyloid nucleation score is -0.447 ± 0.61.

As for TAGSTSSEADISLF, the amyloid nucleation score amounted to 4.02 ± 0.13.

Substance KVLMLQHPIGYLLNILTMS gave an amyloid nucleation score of -0.017 ± 0.41.

For LFMRPCDLFEVVLSTVRLVW, the amyloid nucleation score stood at 1.29 ± 0.52.

As for YFLSSFVSNWWAQYVYW, the amyloid nucleation score result is “inactive”.

TDNHFVTRCTYVAFQLTYKV had an amyloid nucleation score of -0.375 ± 1.1.

CTSHWAYEDEDFFIDRLYFT: the amyloid nucleation score is -0.796 ± 0.3.

Turning to YGCCGKDFCVGPRGVCAV, the amyloid nucleation score turned out to be 1.05 ± 0.24.

Consider WLCYRGEFRYFDPVGNDLRN, for which the amyloid nucleation score result is “inactive”.

In the case of FSYMYPRGLLVINMSGVQVN, the amyloid nucleation score was 1.22 ± 0.17.

LLTAFTTYYLIYHSFSRYLA had an amyloid nucleation score of -1.47 ± 1.1.

For DFDVEA, the amyloid nucleation score is -0.176 ± 1.1.

On to LRTGHPSI, for which the amyloid nucleation score entry was “inactive”.

Substance YTNVVYNYLRSCCGAWYGQR gave an amyloid nucleation score of 9.015 ± 0.068.

In turn, CCQSSEYCWCAWQTSVTSVG came in with an amyloid nucleation score of 0.404 ± 0.8.

In turn, LSINLSDMNFVVHSCLGSLG registered an amyloid nucleation score of 5.45 ± 0.077.

For LSVTPIFGRNTDTLESGL, the amyloid nucleation score is -0.093 ± 0.55.

Turning to DRNVTESMGYVWTASWGAY, the amyloid nucleation score is 0.366 ± 0.41.

On to WTTYLGSFKWRNRVKWWPAP, for which the amyloid nucleation score was 1.88 ± 0.18.

In turn, INLYRSVGPKKWYTGEVLMA yielded an amyloid nucleation score of -0.137 ± 1.1.

HQAWSCSTVGFDLAVVNFAD had an amyloid nucleation score of -0.197 ± 0.43.

In the case of TIVLGSPANHHTLKCKERGK, the amyloid nucleation score was 0.197 ± 0.56.

GIRVLRTRYSLELCMRCLLW: the amyloid nucleation score was found to be 0.126 ± 0.26.

The substance SITMFQCQRVCASLQYVTGT returned an amyloid nucleation score of 6.968 ± 0.063.

Regarding LILLFLTAQRLCLVSDEESE, the amyloid nucleation score is -0.409 ± 0.41.

Take IQEVRVACCWLIFRGCIRTA: the amyloid nucleation score amounted to 4.1 ± 0.12.

For YIIWLI, the amyloid nucleation score entry is “inactive”.

The substance NVPCGLN yielded an amyloid nucleation score of -0.032 ± 1.1.

For NSNLNYPECWEEWTLNHFTD, the amyloid nucleation score result was “inactive”.

The substance QVFFFLITSRVRSVRFSQEF showed an amyloid nucleation score of 1.62 ± 0.25.

DVHTVCASSKHHLRVVKAVT: the amyloid nucleation score worked out at 0.494 ± 0.8.

TIKLYRNMWEQLVQTEPSRT: the amyloid nucleation score is 0.045 ± 0.79.

For NLNVGALSSKWVW, the amyloid nucleation score result is “inactive”.

ILLRMTITCMFTPYHAERRG yielded an amyloid nucleation score of 4.61 ± 0.07.

FYWAKPSHWAPGFINGQDVL had an amyloid nucleation score of -1.19 ± 0.54.

For LRRSGRSENSRRMTWVWW, the amyloid nucleation score was found to be 2.75 ± 0.17.

Take TIGHCTEWAINMSYVFNRGY: the amyloid nucleation score worked out at 3.74 ± 0.053.

In turn, ITQRHSVNLNMMSLDLYTSS returned an amyloid nucleation score of 0.295 ± 1.

Consider GITYVVHSTRGTYREPEGPW, for which the amyloid nucleation score came to 0.469 ± 0.65.

With DRQCK, the amyloid nucleation score worked out at 0.445 ± 0.32.

In turn, LWRSVAKIVSPN registered an amyloid nucleation score of -1.74 ± 0.78.

As to NWCWYHANRLGCFGASCHVV, the amyloid nucleation score was found to be 4.52 ± 0.071.

As for LGWINKWKRLSNIPIAKWHC, the amyloid nucleation score result is “inactive”.

For VVTHYLQIYPRFSMHFFVSV, the amyloid nucleation score amounted to 1.33 ± 0.22.

Regarding QSTHMNT, the amyloid nucleation score is -0.364 ± 0.48.

Substance ELLSRETIKDHWMTIIKYFL had an amyloid nucleation score of -0.143 ± 0.74.

YRKAGSSQTGNFLLLLLDGG gave an amyloid nucleation score of 0.067 ± 0.63.

Substance SSIDMSCQHHLVALIRGFKE gave an amyloid nucleation score of 2.24 ± 0.2.

On to KRKISDSSPRDRWVALLKKL, for which the amyloid nucleation score is 2.15 ± 0.15.

As to LFRFYCMIANCIVLQN, the amyloid nucleation score is 4.93 ± 0.045.

Substance MYIMLFRFVRIVDLLDCLGN registered an amyloid nucleation score of 0.207 ± 0.43.

For the substance DYLKLLAYNVLFR, the amyloid nucleation score entry is “inactive”.

The substance HACSMSIFEFRMCKKWSLLV gave an amyloid nucleation score of -0.848 ± 0.38.

Take SIQLRVK: the amyloid nucleation score result is “inactive”.

VSWLDYHVSPSRCRGTLNPC: the amyloid nucleation score was 0.463 ± 0.38.

The substance KLKCHMSESLKWIGAVKSRR came in with an amyloid nucleation score of 0.776 ± 0.43.

Turning to GMPFG, the amyloid nucleation score turned out to be 0.044 ± 0.28.

Substance LLYCYSLFVVSFDYTFHQRF showed an amyloid nucleation score of 6.15 ± 0.062.

In the case of RLHEYVSLLRGNQRVAHSRS, the amyloid nucleation score was determined as 3.893 ± 0.037.

PRRECVVRSAVPWYRRSRE yielded an amyloid nucleation score of 1.71 ± 0.35.

CACDNHIVNRSESHCYGSLR: the amyloid nucleation score is -0.293 ± 0.39.

LLNLTSLLRKCLFKNRRKFI registered an amyloid nucleation score of -0.972 ± 0.36.

In the case of FMRQMLLVLMPWCQRRWACL, the amyloid nucleation score is -0.382 ± 0.32.

GVTFNADASTFRDACMARLG came in with an amyloid nucleation score of 0.752 ± 0.48.

On to LIAGYDAWWSSKMSRHKVSV, for which the amyloid nucleation score is -0.232 ± 0.27.

Substance HLTEFNNRRRLGTDLAGVGN came in with an amyloid nucleation score of 0.109 ± 0.33.

Substance PRAHTVNV displayed an amyloid nucleation score of -0.249 ± 1.1.

As for WSLYHASERENIRPALTSIW, the amyloid nucleation score was found to be 0.325 ± 0.21.

SMTNNMGLLE displayed an amyloid nucleation score of -0.979 ± 0.76.

With STFLCVLTGMCCMARMS, the amyloid nucleation score turned out to be 0.54 ± 0.64.

CMSRFGRCNFVHDTWMGFTR gave an amyloid nucleation score of 2.93 ± 0.1.

Substance FFGALNWGLKQE displayed an amyloid nucleation score of 0.646 ± 0.43.

TFKVVSKDNI: the amyloid nucleation score was -0.317 ± 0.41.

As for PARTYILYNPDAGMSLKWSS, the amyloid nucleation score is -1.06 ± 1.1.

In turn, RCRPLCI registered an amyloid nucleation score of -0.299 ± 1.

FVHKSCSAALTTLGTVAD yielded an amyloid nucleation score of 4.333 ± 0.042.

QHWRLNWNEDFFMYWYGFLT gave an amyloid nucleation score of -0.655 ± 0.41.

As to RLTYCSQFVWTWCCNRAING, the amyloid nucleation score is 9.062 ± 0.024.

With VTFSSIVTISLISYLQRFWR, the amyloid nucleation score was 5.77 ± 0.04.

As to LERNSMPITVSWSGFEGLKG, the amyloid nucleation score is -0.295 ± 0.65.

TLRVS had an amyloid nucleation score of -0.207 ± 0.36.

On to ILNCVMYLICKYVFII, for which the amyloid nucleation score worked out at 2.16 ± 0.14.

With NDNFLCSAIVFCMAVFRFGW, the amyloid nucleation score result was “inactive”.

As for WNEIE, the amyloid nucleation score entry was “inactive”.

The substance SDQQYGCDWVWLGRGPIEVA came in with an amyloid nucleation score of 0.252 ± 0.28.

KNTMIGSLRLVIYFSSGDKV displayed an amyloid nucleation score of 7.17 ± 0.034.

With RRSDKLAVLWYSDKRMARWS, the amyloid nucleation score is -0.582 ± 0.33.

In turn, FGNFLLSITII showed an amyloid nucleation score of 2.4 ± 0.062.

ARMSFWRRRPLLLSLRRSGV registered an amyloid nucleation score of 0.379 ± 0.44.

In the case of VHNCCTVVSLRREDESVYTN, the amyloid nucleation score is -0.146 ± 0.38.

Regarding YFVCVASDGNMGIRYATR, the amyloid nucleation score entry is “inactive”.

Take PVGVDLWCGSQSNSLNAFLH: the amyloid nucleation score result was “inactive”.

Substance IGTNSGAINSVSHGLLAGYG yielded an amyloid nucleation score of 1.24 ± 0.47.

As for RARPC, the amyloid nucleation score result was “inactive”.

Substance VVANINEVLINPRCSAGFHD showed an amyloid nucleation score of 0.683 ± 0.74.

The substance TGLYFLNSWIIMLRL showed an amyloid nucleation score of 4.434 ± 0.033.

With PCIFFMRFYFRT, the amyloid nucleation score was -0.078 ± 0.65.

As to TNRNKRWRYLTLFV, the amyloid nucleation score amounted to 0.545 ± 0.37.

With FWSVEMMRHTSSFIFAEWNK, the amyloid nucleation score is -0.033 ± 0.2.

As to MFGGPTFNMRWFFTFFSRGR, the amyloid nucleation score was determined as 4.46 ± 0.046.

Turning to FDMEIFTYGGTSNNFGHCDD, the amyloid nucleation score entry was “inactive”.

As for RLTDSSTGDFKNL, the amyloid nucleation score was -1.45 ± 0.61.

LCVYMFT came in with an amyloid nucleation score of 3.51 ± 0.12.
